# Data published in patent US20120237496.
# Assays:
# [1] = system: A-beta 1-40 (fluorescein/Lys-biotin labelled synthetic peptide)
# [2] = system: T1, ANP (fluorescein/Lys-biotin labelled synthetic peptide)
# T1 sequence: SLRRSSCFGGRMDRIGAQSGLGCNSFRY
# [3] = system: Angiotensin (fluorescein/Lys-biotin labelled synthetic peptide)
# [4] = system: Bradykinin (fluorescein/Lys-biotin labelled synthetic peptide)
# [5] = system: Endothelin-1 (average of the 1a and 1b isoforms)
# [6] = system: GIP (fluorescein/Lys-biotin labelled synthetic peptide)
# [7] = system: GLP-1 (fluorescein/Lys-biotin labelled synthetic peptide)
# [8] = system: Glucagon (fluorescein/Lys-biotin labelled synthetic peptide)
# [9] = system: Neurotensin (fluorescein/Lys-biotin labelled synthetic peptide)
# [10] = system: T2, Somatostatin 1-28 (fluorescein/Lys-biotin labelled synthetic peptide)
# T2 sequence: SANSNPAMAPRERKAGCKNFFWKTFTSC
# Sequence of GIP (fluorescein/Lys-biotin labelled synthetic peptide) (chain, as listed by the source): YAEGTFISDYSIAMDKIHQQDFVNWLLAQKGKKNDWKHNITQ
# Sequence of GLP-1 (fluorescein/Lys-biotin labelled synthetic peptide) (chain, as listed by the source): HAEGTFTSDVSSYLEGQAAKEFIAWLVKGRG
# Sequence of Glucagon (fluorescein/Lys-biotin labelled synthetic peptide) (chain, as listed by the source): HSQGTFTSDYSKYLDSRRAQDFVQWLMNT
# Sequence of A-beta 1-40 (fluorescein/Lys-biotin labelled synthetic peptide) (peptide, as listed by the source): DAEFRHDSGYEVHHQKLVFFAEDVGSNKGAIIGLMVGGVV
substance,measurement,setting,value
HSA-Nep-G399V/G714K,kcat/KM,[1],55000 M⁻¹ s⁻¹
same,"ratio of kcat/KM, mutant vs wild type",[1],4.2
same,kcat/KM,[2],42000 M⁻¹ s⁻¹
same,"ratio of kcat/KM, mutant vs wild type",[2],0.15
same,kcat/KM,[3],14000 M⁻¹ s⁻¹
same,"ratio of kcat/KM, mutant vs wild type",[3],0.012
same,kcat/KM,[4],85 M⁻¹ s⁻¹
same,"ratio of kcat/KM, mutant vs wild type",[4],0.00017
same,kcat/KM,[5],62000 M⁻¹ s⁻¹
same,"ratio of kcat/KM, mutant vs wild type",[5],0.21
same,kcat/KM,[6],130 M⁻¹ s⁻¹
same,"ratio of kcat/KM, mutant vs wild type",[6],0.28
same,kcat/KM,[7],36000 M⁻¹ s⁻¹
same,"ratio of kcat/KM, mutant vs wild type",[7],0.25
same,kcat/KM,[8],88000 M⁻¹ s⁻¹
same,"ratio of kcat/KM, mutant vs wild type",[8],0.35
same,kcat/KM,[9],2600 M⁻¹ s⁻¹
same,"ratio of kcat/KM, mutant vs wild type",[9],0.004
same,kcat/KM,[10],3000 M⁻¹ s⁻¹
same,"ratio of kcat/KM, mutant vs wild type",[10],0.0054
